Experimental findings from publication doi:10.1101/2021.09.09.459598 are described below.

In this assay the target is soybean QUAC1 from Glycine max (GmQUAC1) (soybean (Glycine max)). Briefly: cryo-EM structure.

“soybean QUAC1 from Glycine max (GmQUAC1) (natural protein)”: the stoichiometry N (in general, a count of units in the complex or per binding partner) came to 2.
